Source: paper PMC11234873 (Chemical Science, 2024)

Assay: High-throughput protein phase separation
Type: physicochemical
Conditions: 25 μM Hsp90α; 96 LLPS-inducing conditions, sum of averaged grades of 15 subzones

Hsp90α: full-length human Hsp90α (UniProt P07900), N-terminal 6×-His tag, expressed in E. coli
phase separation score (PPS score): 3.1
